The target of assay [1] is T1, full-length human SIRPγ (NP_061026.2) on cells (human, UniProt Q9P1W8 29-387).
T1 construct: also called CHO-hSIRPγ; γ WT
In words: flow cytometry, Expi-CHO cells expressing full-length wild-type human SIRPγ. As for the experimental part: […] These cells are blocked with donkey IgG and incubated on ice with increasing concentrations of antibodies for 60 minutes, washed and stained with AF647-conjugated donkey F(ab′)₂ anti-human IgG antibodies. Stained cells are washed, fixed, and analyzed by flow cytometry. Median fluorescent intensity is determined and used as a measure of antibody binding.
A general note: In flow cytometry, cells or beads pass a laser one at a time.

The target of assay [2] is T2, full-length human SIRPβL (NP_001129316.1) on cells (human, UniProt Q5TFQ8 30-398).
T2 construct: on U937 SIRPα KO cells and Expi-CHO cells; also called βL WT; SIRPβ1v3
T2 sequence (Q5TFQ8 30-398): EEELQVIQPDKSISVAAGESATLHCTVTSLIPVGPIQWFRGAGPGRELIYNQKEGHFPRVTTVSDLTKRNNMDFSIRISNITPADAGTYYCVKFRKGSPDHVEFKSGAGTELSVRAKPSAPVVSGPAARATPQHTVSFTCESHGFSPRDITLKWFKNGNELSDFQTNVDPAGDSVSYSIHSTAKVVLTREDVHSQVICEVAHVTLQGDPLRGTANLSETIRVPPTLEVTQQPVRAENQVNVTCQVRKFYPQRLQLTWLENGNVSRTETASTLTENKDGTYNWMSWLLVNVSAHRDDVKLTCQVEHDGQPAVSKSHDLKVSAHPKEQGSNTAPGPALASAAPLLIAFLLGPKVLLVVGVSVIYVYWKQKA
Nature of the assay: flow cytometry, U937 SIRPα KO cells. In outline: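 Binding read as median fluorescence intensity after AF647 anti-human IgG staining and fixation. Antibodies were titrated onto donkey-IgG-blocked U937^{SIRPα KO} transfectants bearing SIRPβ1 or SIRPβL for 60 minutes on ice.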

Assay [3] concerns the target T3, cynomolgus SIRPα extracellular domain + His-tag (NP_001271679) (cynomolgus monkey).
T3 construct: also called CySIRPα NP_001271679; cynoSIRPα
T3 chain: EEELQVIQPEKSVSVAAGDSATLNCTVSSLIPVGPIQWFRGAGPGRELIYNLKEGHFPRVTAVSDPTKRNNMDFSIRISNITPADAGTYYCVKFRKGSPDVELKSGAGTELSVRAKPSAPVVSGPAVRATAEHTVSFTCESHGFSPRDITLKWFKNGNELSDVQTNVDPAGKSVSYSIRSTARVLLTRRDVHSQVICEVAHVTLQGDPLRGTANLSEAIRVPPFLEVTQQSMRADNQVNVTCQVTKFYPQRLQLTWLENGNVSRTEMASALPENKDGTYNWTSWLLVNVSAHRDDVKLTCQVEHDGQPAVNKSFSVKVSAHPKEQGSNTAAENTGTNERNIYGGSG
Nature of the assay: SPR, Ab captured, ECD-His analyte. The method in brief:
(§1)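 SPR; Ab capture surface, ethanolamine-deactivated (1M, 420 s, 10 μl/min). Analyte: SIRP ECD+His, 2-fold dilution series in 1×HBS-EP+. Inject 300 s @ 30 μl/min; dissoc. 600 s.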
Background: SPR reads the build-up and loss of mass on a sensor chip optically.

For assay [4], the target named is T4, cynomolgus SIRPα extracellular domain + His-tag (EGM_02252) (cynomolgus monkey).
T4 construct: also called CySIRPα EGM_02252; cynoSIRPα
T4 chain: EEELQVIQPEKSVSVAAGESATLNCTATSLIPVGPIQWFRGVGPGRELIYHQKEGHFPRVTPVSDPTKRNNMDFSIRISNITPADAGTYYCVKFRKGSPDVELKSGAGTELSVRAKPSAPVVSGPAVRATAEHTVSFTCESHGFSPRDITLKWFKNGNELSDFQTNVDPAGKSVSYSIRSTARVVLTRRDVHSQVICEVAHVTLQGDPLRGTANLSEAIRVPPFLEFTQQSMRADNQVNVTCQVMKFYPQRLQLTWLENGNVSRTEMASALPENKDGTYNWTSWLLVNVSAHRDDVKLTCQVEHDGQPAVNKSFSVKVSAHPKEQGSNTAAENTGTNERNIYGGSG
In words: SPR, Ab captured, ECD-His analyte. The method in brief: as §1

The target in assay [5] is T5, cynomolgus SIRPα extracellular domain + His-tag (XP_015313155) (cynomolgus monkey).
T5 construct: also called CySIRPα XP_015313155; cynoSIRPα
T5 chain: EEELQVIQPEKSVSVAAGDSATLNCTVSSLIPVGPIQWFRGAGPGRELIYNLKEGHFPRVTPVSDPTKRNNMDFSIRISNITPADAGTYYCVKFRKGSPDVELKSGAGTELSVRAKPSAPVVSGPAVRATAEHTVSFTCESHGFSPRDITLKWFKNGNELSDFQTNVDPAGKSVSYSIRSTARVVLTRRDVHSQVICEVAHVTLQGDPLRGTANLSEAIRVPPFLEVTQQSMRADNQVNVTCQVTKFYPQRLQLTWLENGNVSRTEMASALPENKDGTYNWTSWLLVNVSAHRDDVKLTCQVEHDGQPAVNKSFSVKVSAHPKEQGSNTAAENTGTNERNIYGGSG
Nature of the assay: SPR, Ab captured, ECD-His analyte. In outline:
as §1

Assay [6] concerns the target T6, full-length human SIRPγ EN→DD on Expi-CHO cells (human, UniProt Q9P1W8 29-387).
T6 construct: the entry already carries the change (PENV to PDDV)
T6 chain: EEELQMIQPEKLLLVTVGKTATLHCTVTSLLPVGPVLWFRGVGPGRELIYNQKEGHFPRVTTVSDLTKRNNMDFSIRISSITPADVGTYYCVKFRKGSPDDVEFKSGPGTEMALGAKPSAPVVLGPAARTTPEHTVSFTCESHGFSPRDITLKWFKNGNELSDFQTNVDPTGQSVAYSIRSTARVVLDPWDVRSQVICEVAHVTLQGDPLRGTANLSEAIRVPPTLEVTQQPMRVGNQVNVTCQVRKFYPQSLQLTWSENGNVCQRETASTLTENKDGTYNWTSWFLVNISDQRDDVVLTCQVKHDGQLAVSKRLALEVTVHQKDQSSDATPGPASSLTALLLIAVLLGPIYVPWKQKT
Nature of the assay: flow cytometry, Expi-CHO cells expressing full-length human SIRPγ EN→DD. As for the experimental part: Expi-CHO parental cells are transduced with lentiviruses containing either full-length wild-type human SIRPγ ([…]) or full-length human SIRPγ with amino acid point mutations (Table 64) and sorted to achieve matching expression levels. These cells are blocked with donkey IgG and incubated on ice with increasing concentrations of antibodies for 60 minutes, washed and stained with AF647-conjugated donkey F(ab′)₂ anti-human IgG antibodies. Stained cells are washed, fixed, and analyzed by flow cytometry. Median fluorescent intensity is determined and used as a measure of antibody binding.

T1 sequence (Q9P1W8 29-387): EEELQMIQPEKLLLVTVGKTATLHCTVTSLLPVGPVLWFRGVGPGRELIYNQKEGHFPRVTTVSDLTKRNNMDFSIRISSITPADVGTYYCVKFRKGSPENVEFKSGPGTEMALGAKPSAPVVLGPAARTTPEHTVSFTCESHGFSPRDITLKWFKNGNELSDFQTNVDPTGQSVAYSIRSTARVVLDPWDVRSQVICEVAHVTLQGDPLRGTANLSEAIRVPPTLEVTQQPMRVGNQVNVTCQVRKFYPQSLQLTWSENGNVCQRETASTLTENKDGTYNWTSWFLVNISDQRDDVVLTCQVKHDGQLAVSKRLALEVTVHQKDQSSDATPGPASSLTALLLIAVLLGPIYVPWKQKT

B1: Antibody A10 (antibody, human IgG1, kappa, L234A L235A)
heavy: not shown
light: DIQMTQSPSSLSASVGDRVTITCRASQDINNYLAWFQQKPGKAPKSLIYTASSLHSGVPSKFSGSGSGTDFTLTISSLQPEDFATYYCQQYVSYPYTFGQGTKLEIKRTVAAPSVFIFPPSDEQLKSGTASVVCLLNNFYPREAKVQWKVDNALQSGNSQESVTEQDSKDSTYSLSSTLTLSKADYEKHKVYACEVTHQGLSSPVTKSFNRGEC
As to B1, the binding result in assay [1] is on record as “no binding (tested: about 67 nM)”.

B2: Antibody A (antibody, human IgG1, kappa, L234A L235A)
heavy: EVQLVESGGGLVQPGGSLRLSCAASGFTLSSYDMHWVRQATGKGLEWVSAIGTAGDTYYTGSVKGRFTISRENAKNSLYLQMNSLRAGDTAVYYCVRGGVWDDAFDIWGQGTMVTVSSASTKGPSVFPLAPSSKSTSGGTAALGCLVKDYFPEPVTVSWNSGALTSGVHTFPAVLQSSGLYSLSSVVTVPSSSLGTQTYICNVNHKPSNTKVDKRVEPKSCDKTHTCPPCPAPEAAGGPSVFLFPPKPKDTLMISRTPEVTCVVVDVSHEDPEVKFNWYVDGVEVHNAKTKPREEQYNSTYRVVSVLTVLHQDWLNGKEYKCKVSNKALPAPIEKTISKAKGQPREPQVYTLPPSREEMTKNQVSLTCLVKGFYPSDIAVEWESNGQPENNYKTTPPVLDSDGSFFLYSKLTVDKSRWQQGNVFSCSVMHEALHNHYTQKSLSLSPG
light: DIQMTQSPSSLSASVGDRVTITCRASQDINNYLAWFQQKPGKAPKSLIYTASSLHSGVPSKFSGSGSGTDFTLTISSLQPEDFATYYCQQYVSYPYTFGQGTKLEIKRTVAAPSVFIFPPSDEQLKSGTASVVCLLNNFYPREAKVQWKVDNALQSGNSQESVTEQDSKDSTYSLSSTLTLSKADYEKHKVYACEVTHQGLSSPVTKSFNRGEC
In general, Kd refers to a measure of binding affinity in units of concentration. On to B2, for which the binding result in assay [2] is recorded as “no binding”. Moreover, the results for the Kd in assay [3], in assay [4] and in assay [5] were 336 nM, 258 nM and 165 nM, respectively.

B3: Antibody A10 (antibody, human IgG1, kappa, L234A L235A)
heavy: not shown
light: DIQMTQSPSSLSASVGDRVTITCRASQDINNYLAWFQQKPGKAPKSLIYTASSLHSGVPSKFSGSGSGTDFTLTISSLQPEDFATYYCQQYVSYPYTFGQGTKLEIKRTVAAPSVFIFPPSDEQLKSGTASVVCLLNNFYPREAKVQWKVDNALQSGNSQESVTEQDSKDSTYSLSSTLTLSKADYEKHKVYACEVTHQGLSSPVTKSFNRGEC
As for B3, in assay [2], the binding result is given as “no binding”. Also, the results for the Kd in assay [3], in assay [4] and in assay [5] were 378 nM, 249 nM and 180 nM, respectively.

B4: Antibody E (antibody, human IgG1, kappa, L234A L235A)
heavy: not shown
light: DIVMTQSPLSLPVTPGEPASISCKSSQSLLYSNGYNYLDWYLQRPGQSPQLLIYLGSNRASGVPDRFSGSGSGTDFTLKISRVEAEDVGVFYCMQALQTPLTFGGGTKVEIKRTVAAPSVFIFPPSDEQLKSGTASVVCLLNNFYPREAKVQWKVDNALQSGNSQESVTEQDSKDSTYSLSSTLTLSKADYEKHKVYACEVTHQGLSSPVTKSFNRGEC
For B4, the binding result in assay [6] is “no binding (tested: about 67 nM)”.

B5: Antibody E22 (antibody, human IgG1, kappa, L234A L235A, V domains shown)
VH: QVQLQESGPGLVKPSETLSLTCTVSGGSIRDYYWSWIRQPPGKGLEWIGFIYYNGRTFYQSSLKSRVTISLDTSKNQFSLKMTSVTAADTAVYYCARVRAYSGIGLDGTDVWGQGTTVTVSS
VL: DIVMTQSPLSLPVTPGEPASISCRSSQSLLYSTGYTYLDWYLQRPGQSPQLLIYGGSSRASGVPDRFSGSGSGTDFTLKISRVEAEDVGVFYCGQALQTPLTFGQGTKVEIKR
As for B5, the binding result in assay [6] and in assay [1] was “no binding (tested: about 67 nM)” each time.

Source of the values: patent US20230012273A1 (Boehringer Ingelheim, published 2023).
